# Assay results as given in patent publication US6589738B1, “Genes essential for microbial proliferation and antisense thereto” (priority 1999, dated 2003).
# B1: EcXA059: antisense clone insert encoding a portion of the ypjA gene of Escherichia coli (nucleic acid, listed as Escherichia coli)
# DNA: NACCANGANTGGGACCCAAATGAAAATTGAACTGAAGATTACAATCAATTTAACANCAAGTTACACAACCAATTCAGACTCCGCCAGCCCACCAATCATGATTGGACGGTGTAAGGACAACACCAACAAAAACAGGAAGTTAGAAGTCTNAGCAAAACACCGACCAGACGGTGAGGAGACATAAAAGGATACGCAAAGGAGCCGCGGCTCCTGGTAACATGAAAGCCCACAGATGTGGGCTTTTTCGTTGATGGTCAGAACGACCAGTTCACACCAGCTACCGCGTTCCACGGGGATTCCACACCGGCACTATGGCTATACCCCACCCCAAGATGCCCGCTTAACGTACTGCTGAATGAGGCTTTAATACCTGCCTGGTATATTCCACGTCTGCCCGACAAATAATTGACGAAATTACCGNCACTATTCACTTTCACCCGGTTATCATCGACAAATTCTTTGCGCACAAGCCGNCTTCAGCCACGGNTCAACTTCCATACCGNTCCCCAGACGCATGTTGTAACTCAACGTTGCGCCCAGTTCACGATATATACTGCGGGTATCGACTGATTTCGATTTCATGCCATTGGATAAATGATATTCGGGGTTATCAGCGGTGAAACCCGTTNACGATGCATACNGGGTCAGGGTTCAATTACCATCGGTAAATCGCATTCCCGGTTTCAATGTGACCGCCAANCCCGTTGCTGTNGGTAACTGGCATTGGCGGGTTCANCGGTGGTAATTTTAACCTGGTACGNTACTTTTAAAACGGGTTAAGCTTTACCGAANACCGTNCANNATTGGAAACCCNCTTTTAATGGTTNCCCAACTNGGNN
# modifications: misc_feature (1)...(839): n = A,T,C or G
# notes: antisense clone insert encoding a portion of the ypjA gene of Escherichia coli
# B2: EcXA083: antisense clone insert, E. coli gene hrpB (nucleic acid, listed as Escherichia coli)
# DNA: CGGCTTAGCGCGTCGTTGGCATCGAGCATCGCTCCCATGCCGTTTGCCAGTTGATAGCGTCCATCTTGCC
# B3: EcXA062: antisense clone insert, E. coli gene rep (nucleic acid, listed as Escherichia coli)
# DNA: CGCGTGGAGAGTCATCAGTTGCACCTGATCCAGCTCTTCTTCACTCTCACCACGCTCNATCATGTCGCGCAAAGTAAAGCGCGTCACCACCTGGGTGAGCGTCATCGGCTCATCCAGTTCACTGCCTTCCAGCATCTCCGTCATCCAGCTAAACAGTTGGTTGACGTTCTTCATGCGCATTTCGGCGGCTTTCGGGCTGGGCGATGTTTCGTACAGCCAGGATTCATAATCCATGCCATGGATCAGATCACGCACCGCGGCAATCGGCTCCCGCTCCGCCAGACGCTGGATTTCTGCCAACCAGTGAGTGAAGCGGGTCAATGCTTCA
# modifications: misc_feature (1)...(328): n = A,T,C or G
# notes: antisense clone insert, E. coli gene rep
# B4: EcXA082: antisense clone insert, E. coli genes hybC; hybB (nucleic acid, listed as Escherichia coli)
# DNA: TGCTTTGCTCGCCTCATGACGATTATGATCGTTTTGTTTTAAAGGAGGAAGTATCGGCAGTAGACGAATGAGTACGATGTAAGCGCAAATCTCAATAGCCACAAAACCAATAGAAATCAACAGTTCTTCCCAGGTCGGGAAGTA
# B5: EcXA072: antisense clone insert, E. coli gene recJ (nucleic acid, listed as Escherichia coli)
# DNA: GATTTTTACCGGATTAATTTTAAACATGGTCTGATTTCTTTTATTGAGCTAGTCAAAATGCGGTGATAAGAGCGGGATTGTCCCAATCCACGCTCTTTTTTATAGAGAAGATGACGCTAAATTGGCCAGATATTGTCGATGATAATTTG
# B6: EcXA104: antisense clone insert, E. coli gene hsdS (nucleic acid, listed as Escherichia coli)
# DNA: GACGCGGCGAACGATTTCGGCTTGTTCTTTTACTGGAGGTAATAAAACAACTTGGGATTTGATATCTTTTCCTGAAATACCTTTTTGACCAGAAGTTGTTTTCACGCAGTTCATCATTGCATTTCGTGCTGAGGGGGATGAAAAAAATATTTCGATATATTCTGGTAAAGCATCTTT
# Experiments:
# [1] = system: Bacterial cells containing IPTG-inducible antisense nucleic acid against rplL and rplJ (50S ribosomal subunit proteins); test: microbe, parasite or virus in culture; assay type: cell-based, E. coli; conditions: Escherichia coli, read-out: IC50 (+IPTG)
# Procedure: Antibiotics of various chemical classes and modes of action were purchased from Sigma Chemicals (St. Louis, Mo.). Stock solutions were prepared by dissolving each antibiotic in an appropriate aqueous solution based on information provided by the manufacturer. The final working solution of each antibiotic contained no more than 0.2% (w/v) of any organic solvent. To determine their potency against a bacterial strain engineered for expression of an antisense against a proliferation-required gene encoding 50S ribosomal protein, each antibiotic was serially diluted two or three fold in growth medium supplemented with the appropriate antibiotic for maintenance of the anti-sense construct. […]
# Cells for the assay were prepared as follows. […] The plate was then loaded into a plate reader, incubated at constant temperature, and cell growth was monitored in each well by the measurement of light scattering at 595 nm. Growth was monitored every 5 minutes until the cell culture attained a stationary growth phase. For each concentration of antibiotic, a percentage inhibition of growth was calculated at the time point corresponding to mid-exponential growth for the associated control wells (no antibiotic, plus or minus IPTG). For each antibiotic and condition (plus or minus IPTG), a plot of percent inhibition versus log of antibiotic concentration was generated and the IC50 determined.
# Escherichia coli = test: Growth inhibition after IPTG induction of antisense RNA expression (Example 1; score of Example 12); assay type: cell-based; conditions: for effect of antisense expression on E. coli growth: 1 mM IPTG
# Procedure: (§1) To study the effects of transcriptional induction in liquid medium, growth curves were carried out by back diluting cultures 1:200 into fresh media with or without 1 mM IPTG and measuring the OD450 every 30 minutes (min). To study the effects of transcriptional induction on solid medium, 10^2, 10^3, 10^4, 10^5, 10^6, 10^7 and 10^8 fold dilutions of overnight cultures were prepared. Aliquots of from 0.5 to 3 μl of these dilutions were spotted on selective agar plates with or without 1 mM IPTG. After overnight incubation, the plates were compared to assess the sensitivity of the clones to IPTG.
# Of the numerous clones tested, some clones were identified as containing a sequence that inhibited E. coli growth after IPTG induction. Accordingly, the gene to which the inserted nucleic acid sequence corresponds, or a gene within the operon containing the inserted nucleic acid, may be required for proliferation in E. coli.
# (§2) Molecule No. EcXA059, encoding a portion of the ypjA gene of Escherichia coli, was either transformed directly into Enterobacter cloacae, Salmonella typhimurium and/or Klebsiella pneumoniae or subcloned into an expression vector functional in these species and the subclones transformed into these organisms. Suitable expression vectors are well known in the art. These expression vectors were introduced into Enterobacter cloacae, Salmonella typhimurium and/or Klebsiella pneumoniae cells that were then assayed for growth inhibition according to the method of Example 1. After growth in liquid culture, cells were plated at various serial dilutions and a score determined by calculating the log difference in growth for INDUCED vs. UNINDUCED antisense RNA expression as determined by the maximum 10 fold dilution at which a colony was observed. If there was no effect of antisense RNA expression in one organism, the clone is given a score of zero “0” in that organism. In contrast, a score of “8” means that 10^8 times more cells were required to observe a colony formed on the induced state than in the non-induced state under the conditions used and in that organism.
# Enterobacter cloacae = test: Growth inhibition by E. coli antisense nucleic acids in another microorganism, INDUCED vs. UNINDUCED (Example 12, Table V); assay type: cell-based; conditions: for Sensitivity of E. cloacae to antisense nucleic acid (growth inhibition, INDUCED vs. UNINDUCED): antisense RNA expression induced with IPTG, serial dilution plating
# Procedure: as §1, §2
# (§3) Expression vectors which inhibited growth of E. coli upon induction of antisense RNA expression with IPTG were transformed directly into Enterobacter cloacae, Klebsiella pneumonia or Salmonella typhimurium. The transformed cells were then assayed for growth inhibition according to the method of Example 1. After growth in liquid culture, cells were plated at various serial dilutions and a score determined by calculating the log difference in growth for INDUCED vs. UNINDUCED antisense RNA expression as determined by the maximum 10 fold dilution at which a colony was observed. If there was no effect of antisense RNA expression in a microorganism, the clone is minus in Table V below. In contrast, a positive in Table V below means that at least 10 fold more cells were required to observe a colony on the induced plate than on the non-induced plate under the conditions used and in that microorganism.
# Klebsiella pneumoniae = test: as above; assay type: cell-based; conditions: for Sensitivity of K. pneumoniae to antisense nucleic acid (growth inhibition, INDUCED vs. UNINDUCED): antisense RNA expression induced with IPTG, serial dilution plating
# Procedure: as §1, §2, §3
# Salmonella typhimurium = test: as above; assay type: cell-based; conditions: for Sensitivity of S. typhimurium to antisense nucleic acid (growth inhibition, INDUCED vs. UNINDUCED): antisense RNA expression induced with IPTG, serial dilution plating
# Procedure: as §1, §2, §3
molecule,measurement,setting,value
NC[C@H]1O[C@H](O[C@H]2[C@H](O)[C@@H](O[C@H]3O[C@H](CO)[C@@H](O)[C@H](N)[C@H]3O)[C@H](N)C[C@@H]2N)[C@H](N)C[C@@H]1O [Tobramycin],IC50,[1],0.0705 µg/mL
B1,score (log difference in growth for INDUCED vs. UNINDUCED antisense RNA expression),"Escherichia coli; Escherichia coli, maximum 10 fold dilution at which a colony was observed",8
same,"Sensitivity of E. cloacae to antisense nucleic acid (growth inhibition, INDUCED vs. UNINDUCED)",Enterobacter cloacae,+ (a positive in Table V below means that at least 10 fold more cells were required to observe a colony on the induced plate than on the non-induced plate)
same,score (log difference in growth for INDUCED vs. UNINDUCED antisense RNA expression),"Enterobacter cloacae; Enterobacter cloacae, IPTG induction",8
same,"Sensitivity of K. pneumoniae to antisense nucleic acid (growth inhibition, INDUCED vs. UNINDUCED)",Klebsiella pneumoniae,+ (a positive in Table V below means that at least 10 fold more cells were required to observe a colony on the induced plate than on the non-induced plate)
same,score (log difference in growth for INDUCED vs. UNINDUCED antisense RNA expression),"Klebsiella pneumoniae; Klebsiella pneumoniae, IPTG induction",> 7
same,"Sensitivity of S. typhimurium to antisense nucleic acid (growth inhibition, INDUCED vs. UNINDUCED)",Salmonella typhimurium,+ (a positive in Table V below means that at least 10 fold more cells were required to observe a colony on the induced plate than on the non-induced plate)
same,score (log difference in growth for INDUCED vs. UNINDUCED antisense RNA expression),"Salmonella typhimurium; Salmonella typhimurium, IPTG induction",8
B2,effect of antisense expression on E. coli growth,Escherichia coli,reduction in cell growth
B3,effect of antisense expression on E. coli growth,Escherichia coli,reduction in cell growth
B4,effect of antisense expression on E. coli growth,Escherichia coli,reduction in cell growth
same,"Sensitivity of E. cloacae to antisense nucleic acid (growth inhibition, INDUCED vs. UNINDUCED)",Enterobacter cloacae,+ (a positive in Table V below means that at least 10 fold more cells were required to observe a colony on the induced plate than on the non-induced plate)
B5,effect of antisense expression on E. coli growth,Escherichia coli,reduction in cell growth
same,"Sensitivity of K. pneumoniae to antisense nucleic acid (growth inhibition, INDUCED vs. UNINDUCED)",Klebsiella pneumoniae,+ (a positive in Table V below means that at least 10 fold more cells were required to observe a colony on the induced plate than on the non-induced plate)
same,"Sensitivity of S. typhimurium to antisense nucleic acid (growth inhibition, INDUCED vs. UNINDUCED)",Salmonella typhimurium,+ (a positive in Table V below means that at least 10 fold more cells were required to observe a colony on the induced plate than on the non-induced plate)
B6,effect of antisense expression on E. coli growth,Escherichia coli,reduction in cell growth
same,"Sensitivity of E. cloacae to antisense nucleic acid (growth inhibition, INDUCED vs. UNINDUCED)",Enterobacter cloacae,+ (a positive in Table V below means that at least 10 fold more cells were required to observe a colony on the induced plate than on the non-induced plate)
same,"Sensitivity of K. pneumoniae to antisense nucleic acid (growth inhibition, INDUCED vs. UNINDUCED)",Klebsiella pneumoniae,+ (a positive in Table V below means that at least 10 fold more cells were required to observe a colony on the induced plate than on the non-induced plate)
same,"Sensitivity of S. typhimurium to antisense nucleic acid (growth inhibition, INDUCED vs. UNINDUCED)",Salmonella typhimurium,+ (a positive in Table V below means that at least 10 fold more cells were required to observe a colony on the induced plate than on the non-induced plate)
